Numbering of substitutions follows the chain as printed. Numbers in names are those of the source. One block for each binder: values may come before it.
What was measured:
[1] = molecular target: Tyrosine phosphatase Sts1, Q8BGG7; experiment: co-immunoprecipitation (anti-Bcr-Abl/Abl IP, Sts1 immunoblot, quantified); conditions: chain shown with the change; BaF3 cells stably transduced with the Bcr-Abl variants; parent: est. 1.0; read off a plot
[2] = molecular target: monobody Mb(Bcr-PH_4), displayed on yeast surface; experiment: flow cytometry on cells; monobody displayed on yeast surface; biotinylated target 10 nM to 1 uM in TBS with 0.1% BSA, 30 min at RT; streptavidin-DyLight650; 1:1 binding model; apparent Kd

Sequence of Tyrosine phosphatase Sts1, Q8BGG7 (Q8BGG7 whole entry): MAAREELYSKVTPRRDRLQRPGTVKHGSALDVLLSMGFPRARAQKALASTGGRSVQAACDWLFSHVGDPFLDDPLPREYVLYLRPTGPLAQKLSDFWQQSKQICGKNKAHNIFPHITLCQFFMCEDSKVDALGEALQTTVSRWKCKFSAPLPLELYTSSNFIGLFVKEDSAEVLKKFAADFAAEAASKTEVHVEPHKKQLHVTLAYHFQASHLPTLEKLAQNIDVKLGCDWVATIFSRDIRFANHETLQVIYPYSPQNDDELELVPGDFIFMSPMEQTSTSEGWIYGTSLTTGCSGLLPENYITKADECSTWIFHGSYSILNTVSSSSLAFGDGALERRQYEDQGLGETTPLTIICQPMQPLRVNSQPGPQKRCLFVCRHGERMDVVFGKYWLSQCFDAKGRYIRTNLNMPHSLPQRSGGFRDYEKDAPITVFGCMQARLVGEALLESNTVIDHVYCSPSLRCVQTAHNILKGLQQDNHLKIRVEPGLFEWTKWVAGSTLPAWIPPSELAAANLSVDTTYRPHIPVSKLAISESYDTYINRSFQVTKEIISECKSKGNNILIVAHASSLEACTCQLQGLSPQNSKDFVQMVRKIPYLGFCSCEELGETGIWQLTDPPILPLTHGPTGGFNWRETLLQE

ratio to parent [1]: 0.34
B1: Bcr-Abl p210, P11274 R726A (protein)
chain: MVDPVGFAEAWKAQFPDSEPPRMELRSVGDIEQELERCKASIRRLEQEVNQERFRMIYLQTLLAKEKKSYDRQRWGFRRAAQAPDGASEPRASASRPQPAPADGADPPPAEEPEARPDGEGSPGKARPGTARRPGAAASGERDDRGPPASVAALRSNFERIRKGHGQPGADAEKPFYVNVEFHHERGLVKVNDKEVSDRISSLGSQAMQMERKKSQHGAGSSVGDASRPPYRGRSSESSCGVDGDYEDAELNPRFLKDNLIDANGGSRPPWPPLEYQPYQSIYVGGMMEGEGKGPLLRSQSTSEQEKRLTWPRRSYSPRSFEDCGGGYTPDCSSNENLTSSEEDFSSGQSSRVSPSPTTYRMFRDKSRSPSQNSQQSFDSSSPPTPQCHKRHRHCPVVVSEATIVGVRKTGQIWPNDGEGAFHGDADGSFGTPPGYGCAADRAEEQRRHQDGLPYIDDSPSSSPHLSSKGRGSRDALVSGALESTKASELDLEKGLEMRKWVLSGILASEETYLSHLEALLLPMKPLKAAATTSQPVLTSQQIETIFFKVPELYEIHKEFYDGLFPRVQQWSHQQRVGDLFQKLASQLGVYRAFVDNYGVAMEMAEKCCQANAQFAEISENLRARSNKDAKDPTTKNSLETLLYKPVDRVTRSTLVLHDLLKHTPASHPDHPLLQDALRISQNFLSSINEEITPRRQSMTVKKGEHRQLLKDSFMVELVEGARKLAHVFLFTDLLLCTKLKKQSGGKTQQYDCKWYIPLTDLSFQMVDELEAVPNIPLVPDEELDALKIKISQIKNDIQREKRANKGSKATERLKKKLSEQESLLLLMSPSMAFRVHSRNGKSYTFLISSDYERAEWRENIREQQKKCFRSFSLTSVELQMLTNSCVKLQTVHSIPLTINKEDDESPGLYGFLNVIVHSATGFKQSSNLYCTLEVDSFGYFVNKAKTRVYRDTAEPNWNEEFEIELEGSQTLRILCYEKCYNKTKIPKEDGESTDRLMGKGQVQLDPQALQDRDWQRTVIAMNGIEVKLSVKFNSREFSLKRMPSRKQTGVFGVKIAVVTKRERSKVPYIVRQCVEEIERRGMEEVGIYRVSGVATDIQALKAAFDVNNKDVSVMMSEMDVNAIAGTLKLYFRELPEPLFTDEFYPNFAEGIALSDPVAKESCMLNLLLSLPEANLLTFLFLLDHLKRVAEKEAVNKMSLHNLATVFGPTLLRPSEKESKLPANPSQPITMTDSWSLEVMSQVQVLLYFLQLEAIPAPDSKRQSILFSTEV

ratio to parent [1]: 0.53
B2: Bcr-Abl p210, P11274 R723A; K724A (protein)
chain: B1 chain with R723A, K724A, A726R

Kd [2]: 33 nM
B3: biotinylated Bcr-Abl PH domain (Avi-tag) (domain or fragment)
chain: GEHRQLLKDSFMVELVEGARKLRHVFLFTDLLLCTKLKKQSGGKTQQYDCKWYIPLTDLSFQMVDELEAVPNIPLVPDEELDALKIKISQIKNDIQREKRANKGSKATERLKKKLSEQESLLLLMSPSMAFRVHSRNGKSYTFLISSDYERAEWRENIREQQKKCFRSFSLTSVELQMLTNSCVKLQTVH
modifications: biotin on the Avi-tag

Reference: PMC5727386
